According to article doi:10.1101/2024.07.24.604955, “Unraveling the Role of Ctla-4 in Intestinal Immune Homeostasis: Insights from a novel Zebrafish Model of Inflammatory Bowel Disease” (bioRxiv, 2024):

Legend:
[1] = target: T1, Cd28 with EGFP-tag (labeled protein of the MST assay) (zebrafish); assay: MST; Monolith NT.115; labeled proteins (Cd28/Ctla-4 with EGFP-tag) incubated with 16 doubling dilutions of unlabeled Cd80/86 from 3.2 µM, 10 min at room temperature; 25℃, 40% LED, medium MST power
T1 construct: zebrafish Cd28; identifier not given

[2] = target: T2, Ctla-4 with EGFP-tag (labeled protein of the MST assay) (zebrafish); assay: as above
T2 construct: zebrafish Ctla-4 (XM_005167519.4)
T2 sequence (partner, as listed by the source): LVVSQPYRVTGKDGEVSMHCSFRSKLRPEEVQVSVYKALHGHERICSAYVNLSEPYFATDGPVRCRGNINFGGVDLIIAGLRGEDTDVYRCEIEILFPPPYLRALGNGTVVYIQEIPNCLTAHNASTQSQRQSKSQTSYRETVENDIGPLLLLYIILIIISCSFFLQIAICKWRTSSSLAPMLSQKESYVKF

T1 sequence (partner, as listed by the source): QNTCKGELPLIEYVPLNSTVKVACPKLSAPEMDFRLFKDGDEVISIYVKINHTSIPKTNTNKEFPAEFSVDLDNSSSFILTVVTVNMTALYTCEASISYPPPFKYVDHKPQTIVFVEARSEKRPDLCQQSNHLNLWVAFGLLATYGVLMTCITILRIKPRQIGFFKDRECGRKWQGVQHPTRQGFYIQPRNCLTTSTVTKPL

B1: soluble Cd80/86 (extracellular domain) (domain or fragment)
chain: DNSQPKNISAVVGRSVTFRCPWNLSIPVYRLYIQKLENQPLFINGFNNGKKLPVSPEYQDRTEVNQAELSMEMTNIKLSDEGSYECVVFSSTSSRDIFQINLKVTAEFTTPESKSECSENDGAKKGRSCQMSCSAAGGYPVSDVKWLGLNQSRIRVLQNETAENSTSKTWSVNQTINYTCEHPINVSCDIGGSDSHTITICEAESFPLK
- Kd [1]: 2640 nM
- Kd [2]: 500 nM
